Results: patent publication US20210032299A1 (Eli Lilly, published 2021)
Starred links: 1 amine or outer side, 2 acyl side, 3 side chain; linkers in the order of their positions; H or OH if unused. Non-standard residues stand in square brackets, D forms with d. Groups on a side chain read outwards from the residue. No end group written: not given here. *: point of attachment. C20 diacid = O=C(O)CCCCCCCCCCCCCCCCCCC(=O)*; γGlu = O=C(O)[C@H](CCC(=O)[*:2])N[*:1]; αMeF = C[C@](N)(Cc1ccccc1)C(=O)O; 4Pal = N[C@@H](Cc1ccncc1)C(=O)O; AEEA = NCCOCCOCC(=O)O; Aib = CC(C)(N)C(=O)O

T1: human glucose-dependent insulinotropic peptide receptor (human, UniProt P48546 22-466)
T1 sequence (looked up): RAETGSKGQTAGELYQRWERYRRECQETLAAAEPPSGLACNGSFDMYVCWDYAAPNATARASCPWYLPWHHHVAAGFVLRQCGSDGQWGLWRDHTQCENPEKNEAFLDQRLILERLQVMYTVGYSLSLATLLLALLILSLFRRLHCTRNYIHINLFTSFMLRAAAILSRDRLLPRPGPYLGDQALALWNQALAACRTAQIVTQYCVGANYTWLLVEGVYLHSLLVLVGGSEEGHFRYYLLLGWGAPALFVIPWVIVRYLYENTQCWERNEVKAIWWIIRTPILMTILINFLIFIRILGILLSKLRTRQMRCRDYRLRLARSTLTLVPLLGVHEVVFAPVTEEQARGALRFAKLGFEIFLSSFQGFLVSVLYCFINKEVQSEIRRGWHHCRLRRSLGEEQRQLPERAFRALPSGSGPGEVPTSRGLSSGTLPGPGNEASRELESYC


Key:
Experiment in all cases: cell-based or functional assay
[1] = target: T1, human glucose-dependent insulinotropic …
[2] = target: human GLP-1 receptor (human, UniProt P43220 24-463)
[3] = target: human glucagon receptor (human, UniProt P47871 26-477)
human glucagon receptor, sequence (P47871 26-477): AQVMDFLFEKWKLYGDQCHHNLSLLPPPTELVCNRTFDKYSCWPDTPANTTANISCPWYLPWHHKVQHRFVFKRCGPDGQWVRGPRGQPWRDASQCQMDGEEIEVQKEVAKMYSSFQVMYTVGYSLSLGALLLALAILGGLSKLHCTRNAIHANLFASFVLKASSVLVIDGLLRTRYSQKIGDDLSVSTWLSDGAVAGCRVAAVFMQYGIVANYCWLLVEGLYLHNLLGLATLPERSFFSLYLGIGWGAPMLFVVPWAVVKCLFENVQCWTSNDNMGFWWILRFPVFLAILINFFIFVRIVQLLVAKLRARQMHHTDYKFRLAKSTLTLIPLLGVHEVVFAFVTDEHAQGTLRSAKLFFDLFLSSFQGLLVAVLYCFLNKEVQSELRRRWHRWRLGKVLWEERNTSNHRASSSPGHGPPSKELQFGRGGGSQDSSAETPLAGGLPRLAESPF

Binder | hGIPR cAMP Rel EC50 [1] [nM] | hGLP1R cAMP Rel EC50 [2] [nM] | hGcgR cAMP Rel EC50 [3] [nM]
Y[Aib]EGT[αMeF]ISDYSIALDKK([AEEA-AEEA-γGlu-C20 diacid])HQ[Aib]DFVE[4Pal]LLEQGPSSGAPPPS-NH2 (N-terminus assumed; SMILES CC[C@H](C)[C@H](NC(=O)[C@H](CO)NC(=O)[C@H](Cc1ccc(O)cc1)NC(=O)[C@H](CC(=O)O)NC(=O)[C@H](CO)NC(=O)[C@@H](NC(=O)[C@](C)(Cc1ccccc1)NC(=O)[C@@H](NC(=O)CNC(=O)[C@H](CCC(=O)O)NC(=O)C(C)(C)NC(=O)[C@@H](N)Cc1ccc(O)cc1)[C@@H](C)O)[C@@H](C)CC)C(=O)N[C@@H](C)C(=O)N[C@@H](CC(C)C)C(=O)N[C@@H](CC(=O)O)C(=O)N[C@@H](CCCCN)C(=O)N[C@@H](CCCCNC(=O)COCCOCCNC(=O)COCCOCCNC(=O)CC[C@H](NC(=O)CCCCCCCCCCCCCCCCCCC(=O)O)C(=O)O)C(=O)N[C@@H](Cc1c[nH]cn1)C(=O)N[C@@H](CCC(N)=O)C(=O)NC(C)(C)C(=O)N[C@@H](CC(=O)O)C(=O)N[C@@H](Cc1ccccc1)C(=O)N[C@H](C(=O)N[C@@H](CCC(=O)O)C(=O)N[C@@H](Cc1ccncc1)C(=O)N[C@@H](CC(C)C)C(=O)N[C@@H](CC(C)C)C(=O)N[C@@H](CCC(=O)O)C(=O)N[C@@H](CCC(N)=O)C(=O)NCC(=O)N1CCC[C@H]1C(=O)N[C@@H](CO)C(=O)N[C@@H](CO)C(=O)NCC(=O)N[C@@H](C)C(=O)N1CCC[C@H]1C(=O)N1CCC[C@H]1C(=O)N1CCC[C@H]1C(=O)N[C@@H](CO)C(N)=O)C(C)C) [Example 42] | 0.0091 | 815 | > 5000
Y[Aib]EGT[αMeF]ISDYSIALDKK([AEEA-AEEA-γGlu-C20 diacid])HQ[Aib]DFVE[4Pal]LLEAGPSSGAPPPS-NH2 (N-terminus assumed; SMILES CC[C@H](C)[C@H](NC(=O)[C@H](CO)NC(=O)[C@H](Cc1ccc(O)cc1)NC(=O)[C@H](CC(=O)O)NC(=O)[C@H](CO)NC(=O)[C@@H](NC(=O)[C@](C)(Cc1ccccc1)NC(=O)[C@@H](NC(=O)CNC(=O)[C@H](CCC(=O)O)NC(=O)C(C)(C)NC(=O)[C@@H](N)Cc1ccc(O)cc1)[C@@H](C)O)[C@@H](C)CC)C(=O)N[C@@H](C)C(=O)N[C@@H](CC(C)C)C(=O)N[C@@H](CC(=O)O)C(=O)N[C@@H](CCCCN)C(=O)N[C@@H](CCCCNC(=O)COCCOCCNC(=O)COCCOCCNC(=O)CC[C@H](NC(=O)CCCCCCCCCCCCCCCCCCC(=O)O)C(=O)O)C(=O)N[C@@H](Cc1c[nH]cn1)C(=O)N[C@@H](CCC(N)=O)C(=O)NC(C)(C)C(=O)N[C@@H](CC(=O)O)C(=O)N[C@@H](Cc1ccccc1)C(=O)N[C@H](C(=O)N[C@@H](CCC(=O)O)C(=O)N[C@@H](Cc1ccncc1)C(=O)N[C@@H](CC(C)C)C(=O)N[C@@H](CC(C)C)C(=O)N[C@@H](CCC(=O)O)C(=O)N[C@@H](C)C(=O)NCC(=O)N1CCC[C@H]1C(=O)N[C@@H](CO)C(=O)N[C@@H](CO)C(=O)NCC(=O)N[C@@H](C)C(=O)N1CCC[C@H]1C(=O)N1CCC[C@H]1C(=O)N1CCC[C@H]1C(=O)N[C@@H](CO)C(N)=O)C(C)C) [Example 43] | 0.0154 | 1020 | > 5000
Y[Aib]EGT[αMeF]ISDYSIALDKK([AEEA-AEEA-γGlu-C20 diacid])HQ[Aib]DFVE[4Pal]LLETGPSSGAPPPS-NH2 (N-terminus assumed; SMILES CC[C@H](C)[C@H](NC(=O)[C@H](CO)NC(=O)[C@H](Cc1ccc(O)cc1)NC(=O)[C@H](CC(=O)O)NC(=O)[C@H](CO)NC(=O)[C@@H](NC(=O)[C@](C)(Cc1ccccc1)NC(=O)[C@@H](NC(=O)CNC(=O)[C@H](CCC(=O)O)NC(=O)C(C)(C)NC(=O)[C@@H](N)Cc1ccc(O)cc1)[C@@H](C)O)[C@@H](C)CC)C(=O)N[C@@H](C)C(=O)N[C@@H](CC(C)C)C(=O)N[C@@H](CC(=O)O)C(=O)N[C@@H](CCCCN)C(=O)N[C@@H](CCCCNC(=O)COCCOCCNC(=O)COCCOCCNC(=O)CC[C@H](NC(=O)CCCCCCCCCCCCCCCCCCC(=O)O)C(=O)O)C(=O)N[C@@H](Cc1c[nH]cn1)C(=O)N[C@@H](CCC(N)=O)C(=O)NC(C)(C)C(=O)N[C@@H](CC(=O)O)C(=O)N[C@@H](Cc1ccccc1)C(=O)N[C@H](C(=O)N[C@@H](CCC(=O)O)C(=O)N[C@@H](Cc1ccncc1)C(=O)N[C@@H](CC(C)C)C(=O)N[C@@H](CC(C)C)C(=O)N[C@@H](CCC(=O)O)C(=O)N[C@H](C(=O)NCC(=O)N1CCC[C@H]1C(=O)N[C@@H](CO)C(=O)N[C@@H](CO)C(=O)NCC(=O)N[C@@H](C)C(=O)N1CCC[C@H]1C(=O)N1CCC[C@H]1C(=O)N1CCC[C@H]1C(=O)N[C@@H](CO)C(N)=O)[C@@H](C)O)C(C)C) [Example 41] | 0.0281 | 1800 | > 5000
Y[Aib]EGT[αMeF]ISDYSIALDKK([AEEA-AEEA-γGlu-C20 diacid])HQ[Aib]DFVE[4Pal]LLEGGPSSGAPPPS-NH2 (N-terminus assumed; SMILES CC[C@H](C)[C@H](NC(=O)[C@H](CO)NC(=O)[C@H](Cc1ccc(O)cc1)NC(=O)[C@H](CC(=O)O)NC(=O)[C@H](CO)NC(=O)[C@@H](NC(=O)[C@](C)(Cc1ccccc1)NC(=O)[C@@H](NC(=O)CNC(=O)[C@H](CCC(=O)O)NC(=O)C(C)(C)NC(=O)[C@@H](N)Cc1ccc(O)cc1)[C@@H](C)O)[C@@H](C)CC)C(=O)N[C@@H](C)C(=O)N[C@@H](CC(C)C)C(=O)N[C@@H](CC(=O)O)C(=O)N[C@@H](CCCCN)C(=O)N[C@@H](CCCCNC(=O)COCCOCCNC(=O)COCCOCCNC(=O)CC[C@H](NC(=O)CCCCCCCCCCCCCCCCCCC(=O)O)C(=O)O)C(=O)N[C@@H](Cc1c[nH]cn1)C(=O)N[C@@H](CCC(N)=O)C(=O)NC(C)(C)C(=O)N[C@@H](CC(=O)O)C(=O)N[C@@H](Cc1ccccc1)C(=O)N[C@H](C(=O)N[C@@H](CCC(=O)O)C(=O)N[C@@H](Cc1ccncc1)C(=O)N[C@@H](CC(C)C)C(=O)N[C@@H](CC(C)C)C(=O)N[C@@H](CCC(=O)O)C(=O)NCC(=O)NCC(=O)N1CCC[C@H]1C(=O)N[C@@H](CO)C(=O)N[C@@H](CO)C(=O)NCC(=O)N[C@@H](C)C(=O)N1CCC[C@H]1C(=O)N1CCC[C@H]1C(=O)N1CCC[C@H]1C(=O)N[C@@H](CO)C(N)=O)C(C)C) [Example 44] | 0.0084 | 1180 | > 5000
